The text below walks through data of the domain aggregation screens of Martell et al. (2025).

The data set is described as follows: soluble fraction after stress (log2 fold change); higher = more stays soluble; pooled small domains, quantitative proteomics. Conditions: stress: pH 4. The method, boiled down: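 Custom libraries of small protein domains were pooled and measured with high-throughput quantitative proteomics after pH 4 stress. The read-out is the fold change in the amount of each domain that stays soluble after the acid stress, taken as a measure of aggregation propensity. Fold changes are on a log2 scale, and higher values mean more of the domain stayed soluble.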
As for “HMRASVTYVVQVNGKLRGKLEVAPDIDPEELKKLALEVENVKHSLQGWTVKKVIVIPGKMVSIAAGK”, the “soluble fraction (log2)” value is -0.296.

Consider “HMRAVEGKRLKRLLRTNLIAIERDQILQYPLRKRPLAIVTRAVRATNPDAVIVNDAGDDVFARALDVLLAS”, for which the “soluble fraction (log2)” value was -1.23.

Regarding “HMRDAKSQLQEALQKSGRLPEYELVSVEGPPHAPVFTYRVRIDGAVVGEGQGASKQAAQQAAAQSALKSG”, the “soluble fraction (log2)” value amounted to 0.22.

Regarding “HMRDDAIQQGREIVERELHRLDLAYTTLTDVLAKLEYEKLDDLYAAVGFGIRSPHSVAAAALQVERDKA”, the “soluble fraction (log2)” value is -1.19.

Take “HMRDGHEQLQGVLSAIKFHQANFLIGVLDDGTTVKGNMLSPQVGLEYTFRGRRERHPRWGEQFAFMDYRV”: the “soluble fraction (log2)” value is -1.82.

Turning to “HMRDIGKNIRYYREKKGYSQEQLAQLLFVTRQTVSNYETSRSRPDVETLVKLAGLLDIDVTDLIYGPR”, the “soluble fraction (log2)” value stood at 0.0792.

As to “HMRDKSITFSEFVKLLDEGQIQKVTLTGNEILGTQKSGDKFRTYAPPQYEGLGNKLVERSVEVTAKE”, the “soluble fraction (log2)” value stood at 0.188.

As to “HMRDLVTYVVQVNGKLRGKLEVSPSTDDNSLKTMALELENVQRALEGLSVKKVIVIPGKMVSIAAG”, the “soluble fraction (log2)” value was -0.355.

On to “HMRDVVVVPDLSGLTQMEALSKLDAESLNIGEINYGVSEMPEGVIFKQDPVYGTELMKGDTVDIFISGR”, for which the “soluble fraction (log2)” value was -0.709.

Regarding “HMRDYKTHLQEVLQSKGEVNIWYKLIDEKGPDHNKKFVMQVGIDSKILGFGEGKSKKEAEQVAARKALDNI”, the “soluble fraction (log2)” value was -0.317.

On to “HMREGIQLGDPVRVIRDPLFGKIGAVSGLPSELRAIPTESEVRVLEVRFPDGTTTVVPRANIEVIEG”, for which the “soluble fraction (log2)” value is -0.229.

For “HMREIEVNYAAGDSVRVIDGPLAGFIGVVSSVEPDKNKVNVTVSMFGRETPVELELDQVETLD”, the “soluble fraction (log2)” value is -0.669.

Turning to “HMREISSDELHSLFSADQRGDLVINETTRLSIEKLYALHTPEEREAKVNELSGVLPSEAHRQLVHFLDYFD”, the “soluble fraction (log2)” value was -1.54.

On to “HMREITVEELYELEGIRIVGTIPGISAWVAESGRQMVFLVGQKVKGHDLLEVGESRVVLRKGDSVVNVLL”, for which the “soluble fraction (log2)” value was -1.21.

Turning to “HMREKPRETFQRIAEKVGQTLRKGPVRVQQMDLLFSESREQVMEVLRAMAESGEIRIQDDTLHWNGHT”, the “soluble fraction (log2)” value stood at 0.193.

On to “HMRELPKRPEIRYAAGDRVFHKAFGNGLVKQVAQTAGGARVTVDFGEGKGVKTFAGDAPMIKI”, for which the “soluble fraction (log2)” value is 0.326.

With “HMRELSDFEKLLFTTTLERKMINLAMLLTRSNKADSKDLIQDSYLKAIENQVQFNGNNIDAWVITILKNTF”, the “soluble fraction (log2)” value was -0.361.

On to “HMRENAARNRNVNLDIGETLRVDAWSPERRARVQYRGAAWDVELAPNAPATVGEFRIVEVRGNVLVVTP”, for which the “soluble fraction (log2)” value was -0.0451.

Regarding “HMREPIPVPSRPIRAGDLVEIPGTNRPAEVTAVKGDRLVLKAGVLSMTVKNDEVRLIEDDERAAM”, the “soluble fraction (log2)” value stood at 0.208.

For “HMREQAHEVAGKLGYPVMVKASAGGGGKGIRIVRTEDELDQAFEAAQSETKAAFGDDQMYMEKVI”, the “soluble fraction (log2)” value was -0.176.

Turning to “HMRESDQSTVELSLERTIQEALMVNPRTSSVEEFSFEWGTGRVKVSFIVYSVDGEPFTVDSIIE”, the “soluble fraction (log2)” value was -1.19.

Turning to “HMREVEAPRDLLAALGERPGALDAWKALSFTHQREYVEAIEDARKPETRERRIANAVKMVAERS”, the “soluble fraction (log2)” value came to 0.111.

For “HMREVPHGEYEVKIEKLELVESKAGDPMVTVWFKVLAGDYKGSMIFMNQVITKGFQIHIMNEFLR”, the “soluble fraction (log2)” value is -1.1.

With “HMREYEKAVDYVRRMISSGSLNVGDRLPTERELSLELDISRNSTREAMRMLENMGIIVSRHGSGNYISGN”, the “soluble fraction (log2)” value was -0.222.

On to “HMRFDADELQKAYDLFDADENTPFKTIKQAYYALARRHHPDKNGDQEYFKVINNAFQLIQEHRRRRDN”, for which the “soluble fraction (log2)” value is -0.412.

As to “HMRFGNHHVYRTLMVLSDQKRKGRKQIADAVGIGEGSMRTIIEYLRGLDMIDIRQTGVKITRHGNAFL”, the “soluble fraction (log2)” value stood at 0.138.

“HMRGAARRDRAVGERAVSKDTILDATRALLRKGSALEIRAIDIAEESGLSRQTVFQYYPVIRLIFFELSD”: the “soluble fraction (log2)” value came to 0.155.

Turning to “HMRGETSYANDIIKRLKQANLIVVEGTLYPLLNRLKKDGLLHYEWRESQQGPPRKYYGLTEEGEA”, the “soluble fraction (log2)” value amounted to 0.0328.

With “HMRGFGEVGQLPSGRYRARYTGPDGGRHSAPITFVARIDAEGWLVDQERMISRGEWEPPARQ”, the “soluble fraction (log2)” value was -0.384.

For the sequence “HMRGFGYVRRLPSKRYQASYAGPDLQRHVAPTTFTTKADAESWLGAERKVVESGSWRPPAVREAEARLS”, the “soluble fraction (log2)” value amounted to 0.412.

For “HMRGLIEPLSQRELEVLMLMARGQSNAHIADQLNISENTIKWHGRNIFGKLGVSNRTEAVITSQEMGMLAT”, the “soluble fraction (log2)” value is -0.711.

Consider “HMRGRFGNAAPARNLGDHPQGGAINVKAGRYGPYVSWGKVNATLPKDSDPEKVTLEEAVALIAAKQSGQG”, for which the “soluble fraction (log2)” value was 0.218.

As for “HMRGVDRPLTLPRHWRRNAGRLVKVTLANGSAVTGRVLDPGEERVTLEVSGERHEVAYADVKKALVQVEF”, the “soluble fraction (log2)” value was -0.32.

For “HMRHLSVPNRQVEGALDHIRSQGWLAEGMRVFASEDGSARLIPLGPGAPLEMLEPLAKFDVISHEGKPY”, the “soluble fraction (log2)” value is -0.771.

On to “HMRHSLAAALTELRRLAALDLGDFFRFEYVSHTDSLGGKQQAYTEGIRVSFGVYLGVNKKDRLNVDPVV”, for which the “soluble fraction (log2)” value is -2.38.
